Laboratory results taken from article doi:10.1101/2022.07.24.501275.

Columns and labels:
Assay in all cases: SPR
[1] = target: 14A Fab G32R (mouse | human)
[2] = target: 16A Fab R32G (mouse | human)
[3] = target: 16A Fab W34F (mouse | human)

| Substance | Kd [1] [µM] | KD(peptide)/KD(GalNAc-S) [2] [fold] | KD(peptide)/KD(GalNAc-T) [3] [fold] |
| --- | --- | --- | --- |
| MUC1 glycopeptide RPAPGS(Tn)TAPPAHG | 0.128 | 1.9 |  |
| MUC1 glycopeptide RPAPGST(Tn)APPAHG |  |  | 2.8 |
